Experiments:
Assay in all cases: fluorescence polarization
MAX full length [1] = biological target: T1, MAX full length (Homo sapiens, UniProt P61244 1-160)
MAX H28R = MAX H28R (Homo sapiens, UniProt P61244 1-160, H28R)
MAX full length [2] = biological target: T1, MAX full length; remark: listed apart in the source

T1 sequence (P61244 whole entry): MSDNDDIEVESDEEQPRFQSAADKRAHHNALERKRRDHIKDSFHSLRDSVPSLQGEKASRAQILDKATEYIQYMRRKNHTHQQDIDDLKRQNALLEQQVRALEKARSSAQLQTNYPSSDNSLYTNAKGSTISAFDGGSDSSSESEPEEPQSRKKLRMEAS
MAX H28R, sequence (P61244 whole entry H28R): as the sequence (P61244 whole entry) above, with H28R counted along it

Binder	binding signal (MAX full length [1])	Kd (MAX H28R)	binding result (MAX full length [2])
E-box 12-mer C/5fC (dsDNA, 5fC at position 6 of strand 2) DNA 1: TGCCACGTGACC DNA 2: GGTCACGTGGCA	8 fold weaker than C	< 5 nM	
E-box 12-mer C/C (dsDNA) DNA 1: TGCCACGTGACC DNA 2: GGTCACGTGGCA		< 5 nM	
E-box 12-mer C/5hmC (dsDNA, 5hmC at position 6 of strand 2) DNA 1: TGCCACGTGACC DNA 2: GGTCACGTGGCA	> 13 fold weaker than C	< 5 nM	
Control-1 (dsDNA) DNA 1: GTCAGCGCATGG DNA 2: CCATGCGCTGAC			no binding
E-box 12-mer C/5caC (dsDNA, 5caC at position 6 of strand 2) DNA 1: TGCCACGTGACC DNA 2: GGTCACGTGGCA		< 5 nM	
Control-2 (dsDNA) DNA 1: GAGGCGTGGC DNA 2: TTGCCACGCCTC			no binding
E-box 12-mer C/5mC (dsDNA, 5mC at position 6 of strand 2) DNA 1: TGCCACGTGACC DNA 2: GGTCACGTGGCA	> 13 fold weaker than C	< 5 nM	

Reference: publication PMC5389568
